Source: publication PMC7736295 (Cell Discovery, 2020)

B1: Mint1-CID (residues 338-397) [not stated] / CASK-CaMK (residues 1-337) [not stated] (parent)
chain 1: QRYSKEKRDAISLAIKDIKEAIEEVKTRTIRSPYTPDEPKEPIWVMRQDISPTRDCDDQR
chain 2: MADDDVLFEDVYELCEVIGKGPFSVVRRCINRETGQQFAVKIVDVAKFTSSPGLSTEDLKREASICHMLKHPHIVELLETYSSDGMLYMVFEFMDGADLCFEIVKRADAGFVYSEAVASHYMRQILEALRYCHDNNIIHRDVKPHCVLLASKENSAPVKLGGFGVAIQLGESGLVAGGRVGTPHFMAPEVVKREPYGKPVDVWGCGVILFILLSGCLPFYGTKERLFEGIIKGKYKMNPRQWSHISESAKDLVRRMLMLDPAERITVYEALNHPWLKERDRYAYKIHLPETVEQLRKFNARRKLKGAVLAAVSSHKFNSFYGDPPEELPDFSEDPTS

Variants of: B1
Assay: ITC
Conditions: with CASK-CaMK (residues 1-337); Mint1-CID mutant titrated into CASK(1-337)

Kd | Variant
270 nM | chain 1 QRYSKEKRDAISLAAKDAKEAAEEVKTRTIRSPYTPDEPKEPIWVMRQDISPTRDCDDQR [chain 1 I15A I18A I22A]
